We go through 3 molecules from patent publication US20090155164A1 (Amgen, published 2009).

The target of test [1] is T1, human c-fms, full length, on cells (human, UniProt P07333 20-972). The experiment in a line: cell-based or functional assay.
In test [2] the target is T1, human c-fms, full length, on cells. The experiment in a line: cell-based or functional assay. This is another data set of the same source.
The target of test [3] is T2, cynomolgus monkey c-fms on primary bone marrow cells (cynomolgus monkey). The experiment in a line: cell-based or functional assay.
The target of test [4] is T1, human c-fms, full length, on cells. The experiment in a line: cell-based or functional assay. This is another data set of the same source.
Test [5] concerns the target T2, cynomolgus monkey c-fms on primary bone …. The experiment in a line: cell-based or functional assay. The source holds these as a separate data set.
The target in test [6] is T3, monomeric human c-fms (residues 1-512)-pHis (human, UniProt P07333 20-512).
T3 construct: Construct stated as residues 1-512; signal stated as amino acids 1-19 and left out; also called human c-fms (1-512).pHIS; monomeric c-fms
T3 sequence (P07333 20-512): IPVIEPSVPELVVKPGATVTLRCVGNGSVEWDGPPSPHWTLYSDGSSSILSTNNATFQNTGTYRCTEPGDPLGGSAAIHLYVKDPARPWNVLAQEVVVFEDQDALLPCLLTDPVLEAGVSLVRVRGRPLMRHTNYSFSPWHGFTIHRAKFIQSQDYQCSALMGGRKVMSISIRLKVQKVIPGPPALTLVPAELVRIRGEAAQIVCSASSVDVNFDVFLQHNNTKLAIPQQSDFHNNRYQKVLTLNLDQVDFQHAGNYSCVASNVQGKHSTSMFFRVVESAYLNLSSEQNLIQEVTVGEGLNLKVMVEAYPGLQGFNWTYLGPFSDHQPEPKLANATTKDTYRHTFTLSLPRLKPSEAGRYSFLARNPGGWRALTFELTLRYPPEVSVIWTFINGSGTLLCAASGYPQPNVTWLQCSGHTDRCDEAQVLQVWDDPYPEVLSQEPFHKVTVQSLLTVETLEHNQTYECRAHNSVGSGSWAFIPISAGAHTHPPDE
The experiment in a line: Biacore (summary table). Here is the method:
(§1) Anti-c-fms 1.2 or 1.2 SM at 0.25 μg/ml was injected over goat anti-human IgG, Fcγ in one flow cell for 2 minutes at 10 μl/min to obtain a surface density of ˜47 RUs. Another flow cell with goat anti-human IgG, Fcγ alone was used as a reference surface. Each assay started with ten cycles of buffer as the analyte to stabilize the signal. […] Each complex was allowed to associate for 2 minutes, and dissociate for 5 minutes. The surfaces were regenerated after each c-fms or buffer injection with a 30-second pulse of 10 mM glycine HCl, pH 1.5 at 100 μl/min, followed by a 30-second injection of buffer.
(§2) Other anti-c-fms antibodies were tested in a similar manner, but changes were made to the protocol to account for differences in binding characteristics.
(§3) Data was double referenced by subtracting the reference surface responses to remove bulk refractive index changes, and then subtracting the averaged buffer blank response to remove systematic artifacts from the experimental flow cells.

In test [7] the target is T3, monomeric human c-fms (residues …). The experiment in a line: Biacore, monomeric c-fms. Here is the method:
The binding affinities of the somatic mutation corrected antibodies to monomeric c-fms protein were measured by surface plasmon resonance using a Biacore 3000 instrument.
The affinity of human c-fms (1-512). pHIS (Amgen) for the anti-c-fms mAbs was measured by Biacore. Experiments were conducted at 25° C. using a Biacore 3000 instrument (Biacore AB) equipped with a CM4 sensor chip. Sensor chips, amine coupling reagents (EDC (1-ethyl-3(3-dimethylaminopropyl)-carbodiimide hydrochloride), NHS (N-hydroxysuccinimide), and ethanolamine-HCl, pH 8.5), 10 mM sodium acetate, pH 5.5, HBS-EP (0.01 M HEPES pH 7.4, 0.15 M NaCl, 3 mM EDTA, 0.005% v/v Surfactant P20), and 10 mM glycine-HCl, pH 1.5 were purchased from Biacore AB. Bovine serum albumin (BSA, Bovuminar Standard Powder) was purchased from Serological Corporation. AffiniPure Goat Anti-Human IgG, Fcγ Fragment Specific was purchased from Jackson ImmunoResearch Laboratories.
as §2
(Surface plasmon resonance follows binding to a sensor surface in real time, without labels.)

Test [8] deals with T1, human c-fms, full length, on cells. The experiment in a line: inhibition of 125I-hCSF-1 binding to AML-5 cells, 4 C; competitor: 125I-hCSF-1. Here is the method:
(§4) A saturation radioligand binding experiment was performed in conjunction with each inhibition assay in order to determine both a KD and […] for hCSF-1 binding to c-fms expressed on the surface of AML-5 cells. Mixtures were set up in 96-well round-bottom microtiter plates with total volumes of 150 μl/well. All reagents were diluted in binding media containing 0.2% sodium azide and experiments were conducted at 4° C. to minimize potential receptor internalization and shedding.
For the saturation binding assay, ¹²⁵I-hCSF-1 was serially diluted 2-fold, starting at a concentration of ˜1.7 nM and going out 12 wells to a concentration of ˜1.5 pM. Nonspecific binding was measured at a single concentration of ¹²⁵I-hCSF-1 (˜80 pM, in triplicate) in the presence of a 1,000-fold molar excess of unlabeled hCSF-1, and assumed to be a linear function of the concentration of radiolabeled hCSF-1 present.

For test [9] the target is unchanged. The experiment in a line: inhibition of 125I-CSF-1 binding to AML-5 cells; competitor: 125I-CSF-1 (summary table). Here is the method: as §4
Both assays were incubated at 4° C. on a miniorbital shaker for 4 hours, the length of time needed to reach equilibrium as determined in time course experiments. Two 60 μl aliquots of each incubation mixture were transferred to chilled 400 μl polyethylene centrifuge tubes containing 200 μl phthalate oil and spun for 1.5 minutes in a 4° C. tabletop microfuge (Sorvall,) at 9615×g to separate cell associated ¹²⁵I-hCSF-1 from free ¹²⁵I-hCSF-1. The oil tubes were cut, and each cell pellet and supernatant collected in individual 12×75 mm glass tubes and loaded on a COBRA gamma counter (Packard Instrument Company) for cpm measurements. Cpm from duplicate aliquots taken from each well were averaged for analysis.
Mean K₁ values from 2 experiments were reported (see, TABLE 13).

Test [10] deals with T3, monomeric human c-fms (residues …). The experiment in a line: Biacore 3000, 25 C; mAb captured on goat anti-human IgG Fc, monomeric c-fms(1-512)-pHis analyte, 1:1 fit. Here is the method:
as §1, §2, §3

The target in test [11] is T4, avidin-c-fms Ig-like 2 domain only fusion protein (chicken; human, UniProt P07333 85-223).
T4 construct: Captured on biotin beads; also called Ig-like loop 2 alone (TEPG-AQIV); not shown: chicken avidin, N-terminal fusion partner from pCEP4-Avidin(N)
T4 sequence (P07333 85-223 limits assumed): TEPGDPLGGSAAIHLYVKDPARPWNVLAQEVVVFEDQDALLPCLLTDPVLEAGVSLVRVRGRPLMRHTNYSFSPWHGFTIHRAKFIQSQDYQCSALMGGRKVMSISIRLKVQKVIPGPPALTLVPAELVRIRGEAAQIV
The experiment in a line: FACS, biotin beads loaded with the avidin fusion protein; per the sheet's title 1 µg/mL anti C-FMS and 1 µg/mL mouse anti-human IgG Fc-gamma FITC secondary.

Some results are limits rather than exact numbers.

T1 sequence (P07333 20-972): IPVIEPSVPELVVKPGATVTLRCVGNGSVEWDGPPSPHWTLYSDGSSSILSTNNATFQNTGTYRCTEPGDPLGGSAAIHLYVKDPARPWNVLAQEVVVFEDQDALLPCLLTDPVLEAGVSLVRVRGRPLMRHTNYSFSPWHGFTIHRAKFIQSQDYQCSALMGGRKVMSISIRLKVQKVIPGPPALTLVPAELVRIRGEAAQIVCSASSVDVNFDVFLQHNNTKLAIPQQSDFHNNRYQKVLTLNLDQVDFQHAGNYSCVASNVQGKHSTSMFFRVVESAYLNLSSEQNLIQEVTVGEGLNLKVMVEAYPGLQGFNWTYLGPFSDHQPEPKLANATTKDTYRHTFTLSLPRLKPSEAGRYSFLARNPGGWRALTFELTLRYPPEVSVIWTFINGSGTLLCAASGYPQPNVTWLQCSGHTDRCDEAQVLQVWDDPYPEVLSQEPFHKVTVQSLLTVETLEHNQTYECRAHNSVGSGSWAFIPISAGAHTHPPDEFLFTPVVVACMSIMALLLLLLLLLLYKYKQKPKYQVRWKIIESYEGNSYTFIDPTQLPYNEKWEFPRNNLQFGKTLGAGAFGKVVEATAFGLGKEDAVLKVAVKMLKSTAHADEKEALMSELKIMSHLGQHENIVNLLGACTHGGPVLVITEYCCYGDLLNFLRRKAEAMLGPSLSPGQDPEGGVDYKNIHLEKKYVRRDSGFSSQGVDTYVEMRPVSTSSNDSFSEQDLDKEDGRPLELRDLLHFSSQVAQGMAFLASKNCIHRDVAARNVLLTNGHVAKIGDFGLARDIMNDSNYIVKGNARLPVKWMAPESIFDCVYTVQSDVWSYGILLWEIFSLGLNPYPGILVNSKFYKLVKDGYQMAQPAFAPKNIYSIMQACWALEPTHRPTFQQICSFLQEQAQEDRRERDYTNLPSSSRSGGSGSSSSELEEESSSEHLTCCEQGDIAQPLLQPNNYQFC

B1: anti-c-fms IgG2 clone 1.2 (parent form, PT) (antibody, V domains shown)
VH: QVQLVQSGAEVKKPGASVKVSCKASGYTFTSYGISWVRQAPGQGLEWMGWISAYNGNTNYAQKLQGRVTMTTDTSTSTAYMELRSLRSDDTAVYYCARESWFGEVFFDYWGQGTLVTVSS
VL: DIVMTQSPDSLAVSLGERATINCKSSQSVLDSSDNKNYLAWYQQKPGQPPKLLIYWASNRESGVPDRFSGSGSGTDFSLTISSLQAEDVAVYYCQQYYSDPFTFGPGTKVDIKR
modifications: N-terminal glutamine cyclized to pyroglutamic acid; C-terminal lysine absent
notes: Recombinant human IgG2 kappa from COS/PKB cells (hybridoma was IgG1); also called 1.2.1; Clone 1.2 PT
Usually Kd stands for the concentration at which binding is half-saturated. One may read the Ki as a dissociation constant, usually derived from enzyme kinetics or from competition with a known ligand. Usually koff stands for the rate constant with which the complex falls apart. As usually defined, the kon is a measure of how fast the partners come together. Regarding B1, the “antibody concentration that prevented CSF-1-induced pTyr/c-fms, 293T/c-fms cells” value in test [1] was ≥ 0.1 µg/ml. For the same molecule, in test [1], the “antibody concentration that reduced CSF-1-induced pTyr/c-fms to background, 293T/c-fms cells” value is 0.1 µg/ml. The “AML-5 bioassay IC50” value in test [2] turned out to be 0.027 nM. Moreover, the “Cynomolgus bone marrow bioassay IC50” value in test [3] was 0.078 nM. Besides, the “AML-5 proliferation IC50” value in test [4] amounted to 0.027 nM. In addition, in test [5], the “Cynomolgus Bone Marrow Proliferation IC50” value is 0.078 nM. Also, the Kd in test [6], in [7] and in test [10] was 0.516 nM throughout. The Ki in [8] and in test [9] was 0.0085 nM each time. The same molecule displayed a koff in test [10] of 0.00198 s⁻¹. This molecule yielded a kon in [10] of 3.84e+06 M⁻¹ s⁻¹. In addition, the binding result in test [11] is on record as “no binding (tested: 1 µg/mL)”.

B2: anti-c-fms IgG2 clone 2.360 (parent form, PT) (antibody, V domains shown)
VH: QVQLVQSGAEVKKPGASVKVSCKVSGYTLTELSMHWVRQAPGKGLEWMGGFDPEDGETIYAQKFQGRVTMTEDTSTDTVYMELSSLRSEDTAVYYCATGVMITFGGVIVGHSYYGMDVWGQGTTVTVSS
VL: DIQMTQSPSSLSASVGDRVTITCRASQGINNYLAWYQQKPGKVPQLLIYVASTLQSGVPSRFSGSGSGTDFTLTISSLQPEDVATYYCQKYNSGPFTFGPGTKVDIKR
modifications: N-terminal glutamine cyclized to pyroglutamic acid; C-terminal lysine absent
notes: Recombinant human IgG2 kappa from COS/PKB cells
With B2, in [1], the “antibody concentration that reduced CSF-1-induced pTyr/c-fms to background, 293T/c-fms cells” value is 1 µg/ml. Besides, in test [2], the “AML-5 bioassay IC50” value is 0.06 nM. Further, the “Cynomolgus bone marrow bioassay IC50” value in test [3] was 0.067 nM. Besides, the “AML-5 proliferation IC50” value in test [4] turned out to be 0.06 nM. For the same molecule, the “Cynomolgus Bone Marrow Proliferation IC50” value in test [5] was found to be 0.067 nM. Besides, the Kd in test [6], in [7] and in [10] was 0.535 nM each time. Further, the Ki in test [8] and in test [9] was ~0.16 nM throughout. In [10], this molecule had a koff of 0.000667 s⁻¹. In test [10], the kon came to 1.25e+06 M⁻¹ s⁻¹. In test [11], the binding result is reported as “no binding (tested: 1 µg/mL)”.

B3: anti-c-fms IgG2 clone 1.109 (parent form, PT) (antibody, V domains shown)
VH: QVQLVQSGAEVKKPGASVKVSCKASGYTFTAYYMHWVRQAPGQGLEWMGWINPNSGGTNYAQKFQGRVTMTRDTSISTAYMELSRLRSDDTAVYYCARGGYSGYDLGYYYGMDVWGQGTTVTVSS
VL: DIQMTQSPSSLSASVGDRVTITCQASQNISNFLDWYQQKPGKAPNLLIYDASDLDPGVPSRFSGSGSGTDFTFTISSLQPEDIATYYCQQYVSLPLTFGGGTKVEIKR
modifications: N-linked glycosylation site at Asn-28 in CDR1, reported as likely occupied; N-terminal glutamine cyclized to pyroglutamic acid; C-terminal lysine absent
notes: Recombinant human IgG2 kappa from COS/PKB cells (hybridoma was IgG1)
Consider B3, for which, in [1], the “antibody concentration that prevented CSF-1-induced pTyr/c-fms, 293T/c-fms cells” value is ≥ 0.1 µg/ml and the “antibody concentration that reduced CSF-1-induced pTyr/c-fms to background, 293T/c-fms cells” value was found to be 0.1 µg/ml. For the same molecule, in [2], the “AML-5 bioassay IC50” value is 0.027 nM. Further, in [3], the “Cynomolgus bone marrow bioassay IC50” value is 0.016 nM. For the same molecule, in test [4], the “AML-5 proliferation IC50” value was determined as 0.027 nM. The “Cynomolgus Bone Marrow Proliferation IC50” value in [5] is 0.016 nM. The molecule further displayed a Kd in test [6] of 0.051 nM. For the same molecule, in test [7], the Kd was 0.051 nM. In addition, the Ki in test [8] worked out at 0.0135 nM. In addition, affinity in test [9] was put at a Ki of 0.0135 nM. Besides, in test [10], the Kd stood at 0.051 nM, the off-rate (koff) worked out at 0.000129 s⁻¹ and the kon stood at 2.54e+06 M⁻¹ s⁻¹. Moreover, the binding result in [11] is reported as “no binding (tested: 1 µg/mL)”.
